{
  "source": "patent US20200109188A1",
  "about": "(AstraZeneca / MedImmune, published 2020)",
  "binders": {"B1": {"name": "Antibody 3 (antibody, V domains shown)", "VH": "QVQLQESGPGLVKPSQTLSLTCAISGDSVSSNNAVWNWIRQSPSRGLEWLGRTYYRSKWYNDYAESVKSRITVNPDTSKNQFSLHLKSVTPEDTAVFYCVRSGHITVFGVNVDAFDMWGQGTMVTVSS", "VL": "DIQMTQSPSSLSASVGDRVTITCRTSQSLSSYLHWYQQKPGKAPKLLIYAASSLQSGVPSRFSGSGSGTDFTLTISSLQPEDFATYYCQQSRTFGQGTKVEIK"}},
  "key": {"[1]": {"molecular_target": "HA of A/New Jersey/8/76 (H1N1) virus (influenza A virus)", "experiment": "cell-based or functional assay"}, "[2]": {"molecular_target": "T1, HA of ca A/New Caledonia/20/99 (H1N1) virus (influenza A virus)", "experiment": "cell-based or functional assay"}, "[3]": {"molecular_target": "HA of ca A/Vietnam/1203/04 (H5N1) virus (influenza A virus)", "experiment": "cell-based or functional assay"}, "[4]": {"molecular_target": "T2, HA of ca A/chicken/Hong Kong/G9/97 (H9N2) virus (influenza A virus)", "experiment": "cell-based or functional assay"}, "[5]": {"molecular_target": "HA of A/Hong Kong/8/68 (H3N2) virus (influenza A virus)", "experiment": "cell-based or functional assay"}, "[6]": {"molecular_target": "T3, HA of A/Victoria/3/75 (H3N2) virus (influenza A virus, UniProt P03435 17-567)", "T3 sequence (P03435 17-567 limits assumed)": "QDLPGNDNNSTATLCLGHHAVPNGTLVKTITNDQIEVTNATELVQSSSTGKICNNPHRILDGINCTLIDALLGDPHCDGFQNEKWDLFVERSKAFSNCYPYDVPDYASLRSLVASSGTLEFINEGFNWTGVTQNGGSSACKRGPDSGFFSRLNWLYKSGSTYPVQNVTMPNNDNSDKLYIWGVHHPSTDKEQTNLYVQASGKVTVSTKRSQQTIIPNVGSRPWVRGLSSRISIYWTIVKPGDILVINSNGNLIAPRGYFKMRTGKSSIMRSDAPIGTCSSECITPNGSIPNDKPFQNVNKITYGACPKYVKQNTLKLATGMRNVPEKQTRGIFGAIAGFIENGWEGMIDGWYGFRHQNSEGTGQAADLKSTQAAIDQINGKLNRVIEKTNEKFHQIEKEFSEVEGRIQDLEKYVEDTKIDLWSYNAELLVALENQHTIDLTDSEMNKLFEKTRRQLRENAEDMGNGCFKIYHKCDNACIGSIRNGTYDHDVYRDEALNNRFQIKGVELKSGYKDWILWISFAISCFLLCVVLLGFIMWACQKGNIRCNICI", "experiment": "cell-based or functional assay"}, "[7]": {"molecular_target": "HA of A/Wyoming/03/03 (H3N2) virus (influenza A virus)", "experiment": "cell-based or functional assay"}, "[8]": {"molecular_target": "HA of ca A/Perth/16/09 (H3N2) virus (influenza A virus)", "experiment": "cell-based or functional assay"}, "[9]": {"molecular_target": "HA of A/Fort Monmouth/1/47 (H1N1) virus (influenza A virus)", "experiment": "cell-based or functional assay"}, "[10]": {"molecular_target": "HA of A/New Jersey/8/76 (H1N1) virus (influenza A virus)", "experiment": "cell-based or functional assay", "remark": "listed apart in the source"}, "[11]": {"molecular_target": "HA of A/Kawasaki/9/86 (H1N1) virus (influenza A virus)", "experiment": "cell-based or functional assay"}, "[12]": {"molecular_target": "HA of ca A/Texas/36/91 (H1N1) virus (influenza A virus)", "experiment": "cell-based or functional assay"}, "[13]": {"molecular_target": "HA of ca A/Beijing/262/95 (H1N1) virus (influenza A virus)", "experiment": "cell-based or functional assay"}, "[14]": {"molecular_target": "T1, HA of ca A/New Caledonia/20/99 (H1N1) …", "experiment": "cell-based or functional assay", "remark": "listed apart in the source"}, "HA of H1-BS10 virus": {"molecular_target": "HA of H1-BS10 virus", "experiment": "cell-based or functional assay"}, "[15]": {"molecular_target": "HA of ca A/Japan/57 (H2N2) virus (influenza A virus)", "experiment": "cell-based or functional assay"}, "[16]": {"molecular_target": "HA of ca A/swine/Missouri/06 (H2N3) virus (influenza A virus)", "experiment": "cell-based or functional assay"}, "[17]": {"molecular_target": "HA of ca A/Vietnam/1203/04 (H5N1) virus (influenza A virus)", "experiment": "cell-based or functional assay", "remark": "listed apart in the source"}, "[18]": {"molecular_target": "HA of ca A/Hong Kong/213/03 (H5N1) virus (influenza A virus)", "experiment": "cell-based or functional assay"}, "[19]": {"molecular_target": "HA of ca A/mallard/Alberta/89/85 (H6N2) virus (influenza A virus)", "experiment": "cell-based or functional assay"}, "[20]": {"molecular_target": "HA of ca A/teal/Hong Kong/W312/97 (H6N1) virus (influenza A virus)", "experiment": "cell-based or functional assay"}, "[21]": {"molecular_target": "T2, HA of ca A/chicken/Hong Kong/G9/97 …", "experiment": "cell-based or functional assay", "remark": "listed apart in the source"}, "[22]": {"molecular_target": "HA of A/Hong Kong/8/68 (H3N2) virus (influenza A virus)", "experiment": "cell-based or functional assay", "remark": "listed apart in the source"}, "[23]": {"molecular_target": "T3, HA of A/Victoria/3/75 (H3N2) virus", "experiment": "cell-based or functional assay", "remark": "listed apart in the source"}, "[24]": {"molecular_target": "HA of H3-LA87 (A/Los Angeles/7/09 (H3N2)) virus (influenza A virus)", "experiment": "cell-based or functional assay"}, "[25]": {"molecular_target": "HA of ca A/Sydney/5/97 (H3N2) virus (influenza A virus)", "experiment": "cell-based or functional assay"}, "[26]": {"molecular_target": "HA of ca A/Panama/2007/99 (H3N2) virus (influenza A virus)", "experiment": "cell-based or functional assay"}, "[27]": {"molecular_target": "HA of A/Wisconsin/67/05 (H3N2) virus (influenza A virus)", "experiment": "cell-based or functional assay"}, "[28]": {"molecular_target": "HA of ca A/Perth/16/09 (H3N2) virus (influenza A virus)", "experiment": "cell-based or functional assay", "remark": "listed apart in the source"}, "[29]": {"molecular_target": "HA of A/Victoria/361/11 (H3N2) virus (influenza A virus)", "experiment": "cell-based or functional assay"}, "[30]": {"molecular_target": "HA of ca A/Netherlands/219/03 (H7N7) virus (influenza A virus)", "experiment": "cell-based or functional assay"}, "[31]": {"molecular_target": "HA of ca A/Brit. Columbia/CN-6/04 (H7N3-LP) virus (influenza A virus)", "experiment": "cell-based or functional assay"}, "[32]": {"molecular_target": "HA of ca A/Anhui/1/13 (H7N9) virus (influenza A virus)", "experiment": "cell-based or functional assay"}, "[33]": {"molecular_target": "HA subtype H12 (A/duck/Alberta/60/76 (H12N5)) on HEK cells (influenza A virus, UniProt P03446 17-564)", "sequence (P03446 17-564)": "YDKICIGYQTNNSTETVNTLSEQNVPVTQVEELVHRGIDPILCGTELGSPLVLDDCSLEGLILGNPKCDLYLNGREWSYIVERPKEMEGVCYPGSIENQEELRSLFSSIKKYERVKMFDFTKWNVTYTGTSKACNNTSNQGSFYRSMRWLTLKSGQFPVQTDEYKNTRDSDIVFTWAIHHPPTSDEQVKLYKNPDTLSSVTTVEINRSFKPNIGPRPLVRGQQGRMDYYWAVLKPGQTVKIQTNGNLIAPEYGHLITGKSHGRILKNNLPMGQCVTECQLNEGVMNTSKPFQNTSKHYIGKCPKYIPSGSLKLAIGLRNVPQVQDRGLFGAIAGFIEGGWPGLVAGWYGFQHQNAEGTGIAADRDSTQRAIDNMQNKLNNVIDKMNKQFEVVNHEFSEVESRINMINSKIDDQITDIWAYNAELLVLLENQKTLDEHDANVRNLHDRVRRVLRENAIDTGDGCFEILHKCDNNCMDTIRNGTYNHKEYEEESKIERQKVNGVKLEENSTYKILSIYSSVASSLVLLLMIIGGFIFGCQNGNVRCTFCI", "experiment": "flow cytometry, HA-transfected HEK cells"}, "[34]": {"molecular_target": "HA subtype H4 (A/duck/Czechoslovakia/56 (H4N6)) on HEK cells (influenza A virus, UniProt P19696 17-564)", "sequence (P19696 17-564)": "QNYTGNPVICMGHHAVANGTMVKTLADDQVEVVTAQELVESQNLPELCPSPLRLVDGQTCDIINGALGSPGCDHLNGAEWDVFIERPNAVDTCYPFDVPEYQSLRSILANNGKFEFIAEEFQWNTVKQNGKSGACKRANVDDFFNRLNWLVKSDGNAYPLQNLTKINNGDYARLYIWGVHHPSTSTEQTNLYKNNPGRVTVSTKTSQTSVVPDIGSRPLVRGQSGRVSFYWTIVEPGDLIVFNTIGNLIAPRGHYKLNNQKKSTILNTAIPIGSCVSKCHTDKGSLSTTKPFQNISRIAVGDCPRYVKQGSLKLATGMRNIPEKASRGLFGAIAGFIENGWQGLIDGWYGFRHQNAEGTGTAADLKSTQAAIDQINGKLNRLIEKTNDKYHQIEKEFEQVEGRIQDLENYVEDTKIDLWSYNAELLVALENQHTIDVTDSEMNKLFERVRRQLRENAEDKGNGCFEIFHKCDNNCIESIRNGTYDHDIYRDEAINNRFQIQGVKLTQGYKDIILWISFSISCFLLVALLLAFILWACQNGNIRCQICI", "experiment": "flow cytometry, HA-transfected HEK cells, 5 ug/ml antibody"}, "[35]": {"molecular_target": "HA subtype H10 (A/chicken/Germany/N49 (H10N7)) on HEK cells (influenza A virus, UniProt P12581 17-561)", "sequence (P12581 17-561)": "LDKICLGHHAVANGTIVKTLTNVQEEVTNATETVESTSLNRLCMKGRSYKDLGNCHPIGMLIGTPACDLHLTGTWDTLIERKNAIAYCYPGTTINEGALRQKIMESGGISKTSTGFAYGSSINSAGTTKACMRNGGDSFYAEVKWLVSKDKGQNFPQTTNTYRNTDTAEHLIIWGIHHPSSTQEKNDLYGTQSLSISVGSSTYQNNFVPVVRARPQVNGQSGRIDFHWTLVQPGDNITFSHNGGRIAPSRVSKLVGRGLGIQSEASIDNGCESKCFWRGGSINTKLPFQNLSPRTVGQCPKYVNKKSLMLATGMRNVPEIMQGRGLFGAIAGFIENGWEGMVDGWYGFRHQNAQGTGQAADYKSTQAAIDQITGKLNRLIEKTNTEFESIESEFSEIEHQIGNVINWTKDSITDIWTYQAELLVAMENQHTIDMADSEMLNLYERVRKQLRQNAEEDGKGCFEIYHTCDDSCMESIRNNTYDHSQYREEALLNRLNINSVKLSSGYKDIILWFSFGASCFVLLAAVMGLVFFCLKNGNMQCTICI", "experiment": "flow cytometry, HA-transfected HEK cells, 5 ug/ml antibody"}, "[36]": {"molecular_target": "HA subtype H13 (A/gull/Maryland/704/77 (H13N6)) on HEK cells (influenza A virus, UniProt P13103 19-566)", "sequence (P13103 19-566)": "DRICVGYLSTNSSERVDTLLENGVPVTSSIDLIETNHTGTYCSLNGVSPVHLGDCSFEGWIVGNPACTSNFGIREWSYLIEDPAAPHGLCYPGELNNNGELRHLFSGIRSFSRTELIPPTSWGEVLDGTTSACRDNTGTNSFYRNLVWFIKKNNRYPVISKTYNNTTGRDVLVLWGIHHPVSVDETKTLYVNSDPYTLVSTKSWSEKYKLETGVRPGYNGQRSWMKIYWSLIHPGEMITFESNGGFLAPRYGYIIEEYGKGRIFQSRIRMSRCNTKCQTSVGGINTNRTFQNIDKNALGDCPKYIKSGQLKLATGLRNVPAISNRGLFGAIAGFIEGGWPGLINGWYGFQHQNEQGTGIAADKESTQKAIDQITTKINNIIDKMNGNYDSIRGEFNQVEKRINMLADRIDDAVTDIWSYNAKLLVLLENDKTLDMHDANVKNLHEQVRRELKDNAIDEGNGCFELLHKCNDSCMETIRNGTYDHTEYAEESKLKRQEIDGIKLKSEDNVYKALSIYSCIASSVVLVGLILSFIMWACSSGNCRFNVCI", "experiment": "flow cytometry, HA-transfected HEK cells, 5 ug/ml antibody"}, "[37]": {"molecular_target": "HA subtype H14 (A/mallard/Astrakhan/263/82 (H14N5)) on HEK cells (influenza A virus, UniProt P26136 18-568)", "sequence (P26136 18-568)": "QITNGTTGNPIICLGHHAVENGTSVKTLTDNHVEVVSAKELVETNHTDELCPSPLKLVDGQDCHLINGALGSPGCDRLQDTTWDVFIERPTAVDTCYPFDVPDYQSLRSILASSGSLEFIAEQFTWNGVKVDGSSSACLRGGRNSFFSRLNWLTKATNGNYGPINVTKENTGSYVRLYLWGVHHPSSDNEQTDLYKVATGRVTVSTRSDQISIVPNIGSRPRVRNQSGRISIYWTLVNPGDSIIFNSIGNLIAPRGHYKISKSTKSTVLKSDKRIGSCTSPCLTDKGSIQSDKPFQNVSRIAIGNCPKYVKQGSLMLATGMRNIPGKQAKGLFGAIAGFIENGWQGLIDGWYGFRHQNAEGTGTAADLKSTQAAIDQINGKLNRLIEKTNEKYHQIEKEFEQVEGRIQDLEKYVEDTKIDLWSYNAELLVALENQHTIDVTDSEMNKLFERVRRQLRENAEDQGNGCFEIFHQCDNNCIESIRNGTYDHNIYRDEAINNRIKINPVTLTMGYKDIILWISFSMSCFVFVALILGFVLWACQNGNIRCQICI", "experiment": "flow cytometry, HA-transfected HEK cells, 5 ug/ml antibody"}},
  "note": "Where two headings read alike, the source gives them in different places.",
  "data": [
    {"binder": "B1", "values": [
      {"measurement": "Neutralization IC50, H1-NJ76", "setting": "[1]", "value": 1.41, "unit": "µg/mL"},
      {"measurement": "Neutralization IC50, H1-Ncal99", "setting": "[2]", "value": 0.79, "unit": "µg/mL"},
      {"measurement": "Neutralization IC50, H5-VM04", "setting": "[3]", "value": 2.11, "unit": "µg/mL"},
      {"measurement": "Neutralization IC50, H9-HK97", "setting": "[4]", "value": 1.79, "unit": "µg/mL"},
      {"measurement": "Neutralization IC50, H3-HK68", "setting": "[5]", "value": 0.68, "unit": "µg/mL"},
      {"measurement": "Neutralization IC50, H3-Vic75", "setting": "[6]", "value": 0.75, "unit": "µg/mL"},
      {"measurement": "Neutralization IC50, H3-Wy03", "setting": "[7]", "value": 0.63, "unit": "µg/mL"},
      {"measurement": "Neutralization IC50, H3-Perth09", "setting": "[8]", "value": 1.49, "unit": "µg/mL"},
      {"measurement": "Neutralization IC50, H1-FM47", "setting": "[9]", "value": 1.04, "unit": "µg/mL"},
      {"measurement": "Neutralization IC50, H1-NJ76", "setting": "[10]", "value": 0.57, "unit": "µg/mL"},
      {"measurement": "Neutralization IC50, H1-Kaw86", "setting": "[11]", "value": 1.01, "unit": "µg/mL"},
      {"measurement": "Neutralization IC50, H1-TX91", "setting": "[12]", "value": 0.92, "unit": "µg/mL"},
      {"measurement": "Neutralization IC50, H1-BJ95", "setting": "[13]", "value": 2.98, "unit": "µg/mL"},
      {"measurement": "Neutralization IC50, H1-Ncal99", "setting": "[14]", "value": 1.16, "unit": "µg/mL"},
      {"measurement": "Neutralization IC50, H1-BS10", "setting": "HA of H1-BS10 virus", "value": 2.16, "unit": "µg/mL"},
      {"measurement": "Neutralization IC50, H2-JP57", "setting": "[15]", "value": 0.46, "unit": "µg/mL"},
      {"measurement": "Neutralization IC50, H2-MO06", "setting": "[16]", "value": 1.09, "unit": "µg/mL"},
      {"measurement": "Neutralization IC50, H5-VM04", "setting": "[17]", "value": 1.19, "unit": "µg/mL"},
      {"measurement": "Neutralization IC50, H5-HK03", "setting": "[18]", "value": 0.71, "unit": "µg/mL"},
      {"measurement": "Neutralization IC50, H6-AB85", "setting": "[19]", "value": 0.69, "unit": "µg/mL"},
      {"measurement": "Neutralization IC50, H6-HK97", "setting": "[20]", "value": 0.63, "unit": "µg/mL"},
      {"measurement": "Neutralization IC50, H9-HK97", "setting": "[21]", "value": 1.18, "unit": "µg/mL"},
      {"measurement": "Neutralization IC50, H3-HK68", "setting": "[22]", "value": 1.37, "unit": "µg/mL"},
      {"measurement": "Neutralization IC50, H3-Vic75", "setting": "[23]", "value": 1.12, "unit": "µg/mL"},
      {"measurement": "Neutralization IC50, H3-LA87", "setting": "[24]", "value": 2.04, "unit": "µg/mL"},
      {"measurement": "Neutralization IC50, H3-Syd97", "setting": "[25]", "value": 6.5, "unit": "µg/mL"},
      {"measurement": "Neutralization IC50, H3-Pa99", "setting": "[26]", "value": 9, "unit": "µg/mL"},
      {"measurement": "Neutralization IC50, H3-Wl05", "setting": "[27]", "value": 2.62, "unit": "µg/mL"},
      {"measurement": "Neutralization IC50, H3-Perth09", "setting": "[28]", "value": 1.3, "unit": "µg/mL"},
      {"measurement": "Neutralization IC50, H3-VC11", "setting": "[29]", "value": 3.4, "unit": "µg/mL"},
      {"measurement": "Neutralization IC50, H7-NLD03", "setting": "[30]", "value": 4.74, "unit": "µg/mL"},
      {"measurement": "Neutralization IC50, H7-BC04", "setting": "[31]", "value": 2.95, "unit": "µg/mL"},
      {"measurement": "Neutralization IC50, H7-ANU13", "setting": "[32]", "value": 4.26, "unit": "µg/mL"},
      {"measurement": "binding result", "setting": "[33]", "value": "no binding (tested: 5 ug/ml)"},
      {"measurement": "binding result", "setting": "[34]", "value": "binds"},
      {"measurement": "binding result", "setting": "[35]", "value": "binds"},
      {"measurement": "binding result", "setting": "[36]", "value": "binds"},
      {"measurement": "binding result", "setting": "[37]", "value": "binds"}
    ]}
  ]
}
